{"source": "paper PMC4804166", "about": "“Different states of synaptotagmin regulate evoked versus spontaneous release” (Nature Communications, 2016)", "target": "T1, preformed t-SNARE heterodimers (syntaxin 1A and SNAP-25B) in PS-free proteoliposomes (rat | mouse, UniProt P32851 1-288; P60879-1 1-206)", "T1 construct": "syntaxin-1A, rat, full-length cDNA; SNAP-25B, mouse; the sentence 'cDNA encoding full-length rat syntaxin-1A, mouse SNAP-25B and mouse synaptobrevin-2' is read as full length for all three; also called t-SNAREs; t-SNARE vesicles; source: pTrcHis vector, purified by the N-terminal His6-tag; reconstituted into PS-free vesicles", "T1 sequence (P32851 whole entry, chain 1 of 2)": "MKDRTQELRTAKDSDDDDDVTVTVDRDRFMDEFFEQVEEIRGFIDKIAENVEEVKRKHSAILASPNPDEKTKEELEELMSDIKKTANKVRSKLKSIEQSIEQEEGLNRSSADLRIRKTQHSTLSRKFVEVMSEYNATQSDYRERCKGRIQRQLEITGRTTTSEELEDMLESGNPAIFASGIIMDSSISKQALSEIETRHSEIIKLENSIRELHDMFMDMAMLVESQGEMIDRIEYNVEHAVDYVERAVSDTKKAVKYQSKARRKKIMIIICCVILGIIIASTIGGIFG", "T1 sequence (P60879 whole entry, chain 2 of 2)": "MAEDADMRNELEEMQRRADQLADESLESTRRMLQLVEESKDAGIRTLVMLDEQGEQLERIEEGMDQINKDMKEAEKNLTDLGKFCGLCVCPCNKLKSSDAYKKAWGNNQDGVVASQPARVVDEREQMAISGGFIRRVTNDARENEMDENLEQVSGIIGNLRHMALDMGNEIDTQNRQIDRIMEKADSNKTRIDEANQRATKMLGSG", "assay": "co-flotation; 11 uM syt cytoplasmic domain mixed with 45 ul PS-free t-SNARE vesicles in 25 mM HEPES-KOH pH 7.4, 100 mM KCl, 10% glycerol, 1 mM dithiothreitol; 0.2 mM EGTA or 1 mM free Ca2+; RT 45 min; Accudenz gradient, 287,000g; SDS-PAGE, Coomassie blue, densitometry", "conditions": "both partners purified"}
{"binder": "wild-type cytoplasmic domain of synaptotagmin 1 (residues 96-421) (domain or fragment, rat, UniProt P21707 96-421, looked up, synaptotagmin 1, rat, cytoplasmic domain with the tandem C2-domains C2A and C2B, residues 96-421; the D374 of the original cDNA was corrected to glycine; The native linker between C2A and C2B is residues 264-272, SAEKEEQEK; Residue 374 is glycine after correction of the cDNA; also called WT syt; syt) GGKNAINMKDVKDLGKTMKDQALKDDDAETGLTDGEEKEEPKEEEKLGKLQYSLDYDFQNNQLLVGIIQAAELPALDMGGTSDPYVKVFLLPDKKKKFETKVHRKTLNPVFNEQFTFKVPYSELGGKTLVMAVYDFDRFSKHDIIGEFKVPMNTVDFGHVTEEWRDLQSAEKEEQEKLGDICFSLRYVPTAGKLTVVILEAKNLKKMDVGGLSDPYVKIHLMQNGKRLKKKKTTIKKNTLNPYYNESFSFEVPFEQIQKVQVVVTVLDYDKIGKNDAIGKVFVGYNSTGAELRHWSDMLANPRRPIAQWHTLQVEEEVDAMLAVKK", "values": [{"measurement": "binding result", "result": "binds"}]}
